Test results as given in US20180258174A1 (INSITUT NATIONAL DE LA SANTE ET DE LA RECHERCHE MEDICALE …, published 2018).

Target: RLIQ108D/CD122 complex (RLIQ108D bound to immobilized CD122) (human, UniProt P14784 27-240, limits assumed)
Assay: SPR, sequential binding on immobilized CD122
Protocol: The SPR experiments were performed with a BIAcore 3000 biosensor (BIAcore, Uppsala, Sweden). Recombinant proteins (hCD122, hCD132, Fc-IL-15Rα) were covalently linked to CM5 sensor chips, and the binding of increasing concentrations of ligands (IL-15, IL-15Q108D, RLI, RLIQ108D, RLIN65K) was monitored. Analysis of sensorgrams was performed using BIAlogue kinetics evaluation software.
In order to inhibit IL-2 and IL-15 dependent effector functions, we developed an original approach targeting the CD122/CD132 dimer, by combining an increased affinity for CD122 and an impaired recruitment of CD132. […] We have thus generated RLIQ108D, a fusion molecule between IL-15Q108D mutein covalently linked to the soluble IL-15Rα sushi domain. As a control, RLIN65K was produced in which CD122 recruitment was abrogated by introducing the N65K mutation in the IL-15 moiety. […] By contrast, RLIN65K was unable to bind CD122 (FIG. 11C). Furthermore, soluble CD132 binding to RLI/CD122 complex was completely abrogated when introducing in RLI the Q108D substitution (RLIQ108D) (FIG. 11E). […] As a control, the binding of the non-blocking CF-1 anti-CD122 mAb was unaffected by either RLIQ108D or RLIN65K (FIG. 12A).

RLIQ108D/CD122 complex (RLIQ108D bound to immobilized CD122), sequence (chain, as listed by the source limits assumed, chain 1 of 2): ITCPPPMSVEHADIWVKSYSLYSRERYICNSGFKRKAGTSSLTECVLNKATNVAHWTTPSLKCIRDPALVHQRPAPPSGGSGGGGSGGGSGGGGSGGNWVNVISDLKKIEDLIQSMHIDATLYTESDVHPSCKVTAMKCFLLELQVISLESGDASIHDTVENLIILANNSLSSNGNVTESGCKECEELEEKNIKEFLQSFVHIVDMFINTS
RLIQ108D/CD122 complex (RLIQ108D bound to immobilized CD122), sequence (P14784 27-240 limits assumed, chain 2 of 2): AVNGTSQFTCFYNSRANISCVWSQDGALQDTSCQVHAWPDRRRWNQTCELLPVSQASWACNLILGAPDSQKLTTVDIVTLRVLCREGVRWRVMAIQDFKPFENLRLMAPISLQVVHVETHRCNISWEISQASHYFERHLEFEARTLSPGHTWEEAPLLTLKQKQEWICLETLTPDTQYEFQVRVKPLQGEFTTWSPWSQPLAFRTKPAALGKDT

binding result: no binding
B1: hCD132 (recombinant, soluble CD132 chain) (receptor, human, UniProt P31785 23-262, looked up)
chain: LNTTILTPNGNEDTTADFFLTTMPTDSLSVSTLPLPEVQCFVFNVEYMNCTWNSSSEPQPTNLTLHYWYKNSDNDKVQKCSHYLFSEEITSGCQLQKKEIHLYQTFVVQLQDPREPRRQATQMLKLQNLVIPWAPENLTLHKLSESQLELNWNNRFLNHCLEHLVQYRTDWDHSWTEQSVDYRHKFSLPSVDGQKRYTFRVRSRFNPLCGSAQHWSEWSHPIHWGSNTSKENPFLFALEA
